Results as given in patent US20180244762A1 (KODIAK SCIENCES, published 2018).
Where a chain is given by its changes, count along the chain named. Names may count otherwise.

B1: aflibercept (Fc fusion, UniProt P17948 129-230, looked up, not shown: a dimerising Fc or GST)
chain: SDTGRPFVEMYSEIPEIIHMTEGRELVIPCRVTSPNITVTLKKFPLDTLIPDGKRIIWDSRKGFIISNATYKEIGLLTCEATVNGHLYKTNYLTHRQTNTIIDVVLSPSHGIELSVGEKLVLNCTARTELNVGIDFNWEYPSSKHQHKKLVNRDLKTQSGSEMKKFLSTLTIDGVTRSDQGLYTCAASSGLMTKKNSTFVRVHEK
B2: TAF443 (PDGFRβ-GS10-anti-VEGF-A heavy chain (L443C)/anti-VEGF-A light chain) (other)
heavy: LVVTPPGPELVLNVSSTFVLTCSGSAPVVWERMSQEPPQEMAKAQDGTFSSVLTLTNLTGLDTGEYFCTHNDSRGLETDERKRLYIFVPDPTVGFLPNDAEELFIFLTEITEITIPCRVTDPQLVVTLHEKKGDVALPVPYDHQRGFSGIFEDRSYICKTTIGDREVDSDAYYVYRLQVSSINVSVNAVQTVVRQGENITLMCIVIGNEVVNFEWTYPRKESGRLVEPVTDFLLDMPYHIRSILHIPSAELEDSGTYTCNVTESVNDHQDEKAINITVVESGGGGGSGGGGSEVQLVESGGGLVQPGGSLRLSCAASGYDFTHYGMNWVRQAPGKGLEWVGWINTYTGEPTYAADFKRRFTFSLDTSKSTAYLQMNSLRAEDTAVYYCAKYPYYYGTSHWYFDVWGQGTLVTVSSASTKGPSVFPLAPSSKSTSGGTAALGCLVKDYFPEPVTVSWNSGALTSGVHTFPAVLQSSGLYSLSSVVTVPSSSLGTQTYICNVNHKPSNTKVDKKVEPKSCDKTHTCPPCPAPEAAGAPSVFLFPPKPKDTLMISRTPEVTCVVVDVSHEDPEVKFNWYVDGVEVHNAKTKPREEQYNSTYRVVSVLTVLHQDWLNGKEYKCKVSNKALPAPIEKTISKAKGQPREPQVYTLPPSREEMTKNQVSLTCLVKGFYPSDIAVEWESNGQPENNYKTTPPVLDSDGSFFLYSKLTVDKSRWQQGNVFSCSVMHEALHNHYTQKSLSCSPGK
light: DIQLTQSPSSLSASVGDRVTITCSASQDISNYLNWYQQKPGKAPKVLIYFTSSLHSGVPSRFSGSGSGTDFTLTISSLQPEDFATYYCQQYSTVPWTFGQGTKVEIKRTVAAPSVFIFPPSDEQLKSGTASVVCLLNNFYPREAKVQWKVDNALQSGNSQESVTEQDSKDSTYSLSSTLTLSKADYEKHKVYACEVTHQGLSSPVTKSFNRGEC
notes: also called OG1321; TAF-443C
B3: OG1448 (TAF443 conjugated to the OG1802 biopolymer) (other)
heavy: B2 heavy
light: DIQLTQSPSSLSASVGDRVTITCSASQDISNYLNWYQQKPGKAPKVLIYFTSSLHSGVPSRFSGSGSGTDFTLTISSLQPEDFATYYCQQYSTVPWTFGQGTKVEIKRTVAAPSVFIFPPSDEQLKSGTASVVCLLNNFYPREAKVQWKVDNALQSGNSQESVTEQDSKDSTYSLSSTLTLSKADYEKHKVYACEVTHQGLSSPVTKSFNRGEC
modifications: OG1802 biopolymer (about 750 kDa, 9-arm HEMA-PC, maleimide) on the cysteine 443 residue (L443C, EU numbering)
notes: also called TAF443 polymer conjugate
B4: TAF (PDGFRβ-GS10-anti-VEGF-A heavy chain/anti-VEGF-A light chain) (other)
heavy: B2 heavy with C741L
light: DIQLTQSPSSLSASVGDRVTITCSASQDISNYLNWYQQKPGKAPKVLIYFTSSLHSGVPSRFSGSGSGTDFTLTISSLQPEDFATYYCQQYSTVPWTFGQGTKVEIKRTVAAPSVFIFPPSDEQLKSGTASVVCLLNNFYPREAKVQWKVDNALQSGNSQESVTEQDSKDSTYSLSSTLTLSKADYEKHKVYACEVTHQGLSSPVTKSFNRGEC
modifications: Glycosylated PDGFR segment. The molecule is a dimer of two fusion heavy chains and two light chains.
notes: PDGFR-beta trap fused to the N-terminus of an anti-VEGF-A IgG1 heavy chain; also called TAF-WT; TAFwt
B5: TAF347 (PDGFRβ-GS10-anti-VEGF-A heavy chain (Q347C)/anti-VEGF-A light chain) (other)
heavy: B2 heavy with Q645C, C741L
light: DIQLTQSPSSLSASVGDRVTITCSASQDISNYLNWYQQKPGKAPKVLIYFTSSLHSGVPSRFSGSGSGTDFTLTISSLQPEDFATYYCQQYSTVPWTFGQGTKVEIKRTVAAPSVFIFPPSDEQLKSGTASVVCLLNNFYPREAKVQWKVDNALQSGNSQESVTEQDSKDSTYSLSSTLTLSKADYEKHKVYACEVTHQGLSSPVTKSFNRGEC
notes: Same as TAF except for Q347C (EU numbering); also called TAF-347C
B6: rhVEGFA-165 (ligand, human, UniProt P15692-4 27-191, looked up)
chain: APMAEGGGQNHHEVVKFMDVYQRSYCHPIETLVDIFQEYPDEIEYIFKPSCVPLMRCGGCCNDEGLECVPTEESNITMQIMRIKPHQGQHIGEMSFLQHNKCECRPKKDRARQENPCGPCSERRKHLFVQDPQTCKCSCKNTDSRCKARQLELNERTCRCDKPRR
modifications: biotinylated in Example 34
B7: TAF443-6A250K (other)
heavy: B2 heavy
light: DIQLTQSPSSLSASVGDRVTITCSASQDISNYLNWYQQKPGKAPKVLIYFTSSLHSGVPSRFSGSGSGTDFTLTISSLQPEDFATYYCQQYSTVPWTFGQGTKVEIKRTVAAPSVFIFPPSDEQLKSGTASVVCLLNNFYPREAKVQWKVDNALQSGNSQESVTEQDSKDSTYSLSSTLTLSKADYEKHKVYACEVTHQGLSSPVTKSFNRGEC
modifications: polymer conjugate, label 6A250K; polymer and attachment site not described for this conjugate
notes: also called R3643-6A
B8: TAF443-3A250K (other)
heavy: B2 heavy
light: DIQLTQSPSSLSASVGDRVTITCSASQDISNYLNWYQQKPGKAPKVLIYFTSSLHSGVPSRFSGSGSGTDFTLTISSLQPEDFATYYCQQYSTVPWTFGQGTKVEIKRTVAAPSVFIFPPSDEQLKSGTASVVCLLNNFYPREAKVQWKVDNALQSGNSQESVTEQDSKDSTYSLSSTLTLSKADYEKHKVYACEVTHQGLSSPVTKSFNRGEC
modifications: polymer conjugate, label 3A250K; polymer and attachment site not described for this conjugate
notes: also called R3644-3A

Legend:
rhVEGFA-165 = molecular target: B6; experiment: cell-based or functional assay
[1] = molecular target: T1, recombinant human PDGF-BB (human, UniProt P01127 82-190); experiment: optical biosensor (Proteon XPR36 / Biacore 2000), binder amine-coupled, rhPDGF-BB injected, 25 C
T1 construct: also called rhPDGF-BB; rhPDGFBB
T1 sequence (P01127 82-190): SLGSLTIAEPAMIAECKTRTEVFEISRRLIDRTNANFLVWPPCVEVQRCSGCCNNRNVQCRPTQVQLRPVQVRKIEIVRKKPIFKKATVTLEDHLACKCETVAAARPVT
Description: (§1) Binding studies were performed at 25° C. and 37° C. using BioRad Proteon XPR36 and Biacore 2000 optical biosensors equipped with GLM (Proteon) and CM4 (Biacore) sensor chips and equilibrated with running buffer (10 m/M HEPES, 150 mM NaCl, 0.005% Teen-20, 0.2 mg/ml BSA).

[2] = molecular target: T1, recombinant human PDGF-BB; experiment: SPR (Biacore T200, 25 C), binder captured by anti-human IgG, PDGF-BB as analyte, run A
Description: (§2) Each PDGF/VEGF variant was captured to a level of approximately 150 RUs. The running and sample buffer for the PDGF analysis was HBS-EP+300mM NaCl (10 mM 4-(2-hydroxyethyl)-1-piperazineethanesulfonic acid (HEPES) pH 7.4, 300 mM NaCl, 3mM ethylenediaminetetraacetic acid (EDTA), 0.05% (v/v) Tween-20). […] The surface was then regenerated with a 30 second pulse of 3M MgCl₂, a 30 second pulse of an ionic regeneration buffer (0.46M KSCN, 1.83 M MgCl2, 0.92 M urea, and 1.83 M guanidine-HCI pH7.4, Andersson et al., Analytical Chemistry, 1999) and then equilibrated with a 30 second pulse of HBS-EP+ 300 mM NaCl running buffer.
(§3) All SPR assays were performed at 25° C. with a data collection rate of1Hz using a Biacore T200 instrument (GE Healthcare). The resulting PDGP and VEGP sensorgrams were double referenced using both a control surface and buffer injections. The rate constants were determined by fitting the data to a 1:1 Langmuir model with Biacore T200 evaluation software v2.0 and the equation […].

[3] = molecular target: T1, recombinant human PDGF-BB; experiment: competitive ELISA: binder preincubated with 0.2 nM rhPDGF-BB, competitor immobilized PDGFR/Fc
[4] = molecular target: T1, recombinant human PDGF-BB; experiment: cell-based or functional assay
[5] = molecular target: T1, recombinant human PDGF-BB; experiment: SPR (Biacore T200, 25 C), binder captured by anti-human IgG, PDGF-BB as analyte, run B
Description: as §2, §3

[6] = molecular target: T1, recombinant human PDGF-BB; experiment: SPR (Biacore T200, 25 C), binder captured by anti-human IgG, PDGF-BB as analyte, average +/- SD of the runs
Description: as §2, §3

[7] = molecular target: T1, recombinant human PDGF-BB; experiment: competitive ELISA: OG1448 preincubated with 0.2 nM PDGF-BB plus rhVEGFA-165 at 0.2, 0.6 and 1.0 nM, competitor immobilized PDGFRb/Fc; in the presence of rhVEGFA-165 (0.2, 0.6 and 1.0 nM)
[8] = molecular target: T1, recombinant human PDGF-BB; experiment: SPR (Biacore T200, 25 C), binder captured by anti-human IgG, PDGF-BB as analyte, run C
Description: as §2, §3

aflibercept = molecular target: B1; experiment: optical biosensor (Proteon XPR36 / Biacore 2000), binder amine-coupled, rhVEGFA-165 injected, 25 C
Description: as §1
Binding of the coupled proteins to the ligands was determined by standard methodology.

[9] = molecular target: T1, recombinant human PDGF-BB; experiment: SPR (Biacore T200, 25 C), binder captured by anti-human IgG, PDGF-BB as analyte, average of the runs
Description: as §2, §3

Row | Binder | Inhibition of VEGF induced proliferation of HRMVECs, IC50 (rhVEGFA-165) [pM] | Kd [1] [pM] | Kd [2] [pM] | koff [2] [s⁻¹] | kon [2] [M⁻¹ s⁻¹] | t½ [2] [h] | IC50 [3] [pM] | Inhibition of PDGF induced proliferation of HPVPs, IC50 [4] [pM] | Kd [5] [pM] | koff [5] [s⁻¹] | kon [5] [M⁻¹ s⁻¹] | t½ [5] [h] | Kd [6] [pM] | IC50 [7] [pM] | Kd [8] [pM] | koff [8] [s⁻¹] | kon [8] [M⁻¹ s⁻¹] | t½ [8] [h] | Kd (aflibercept) [pM] | Kd [9] [pM]
1 | B1 | 550 | – | – | – | – | – | – | – | – | – | – | – | – | – | – | – | – | – | – | –
2 | B2 | – | 14 | 1.54 | 4.96e-05 | 3.22e+07 | 3.89 | 46 | 5000 | 1.56 | 8.76e-05 | 5.62e+07 | 2.2 | 1.55 | – | – | – | – | – | – | –
3 | B3 | – | 17 | – | – | – | – | 54 | 2900 | – | – | – | – | – | 25 | – | – | – | – | – | –
4 | B4 | – | – | 1.01 | 8.01e-05 | 7.97e+07 | 2.4 | – | – | 1.15 | 9.19e-05 | 8.01e+07 | 2.09 | 1.1 | – | 1.19 | 0.000103 | 8.65e+07 | 1.87 | – | –
5 | B5 | – | – | 2.03 | 8.41e-05 | 4.15e+07 | 2.29 | – | – | 1.35 | 7.87e-05 | 5.82e+07 | 2.45 | 1.7 | – | – | – | – | – | – | –
6 | B6 | – | – | – | – | – | – | – | – | – | – | – | – | – | – | – | – | – | – | 1.56 | –
7 | B7 | – | – | 1.25 | 9.46e-05 | 7.6e+07 | 2.03 | – | – | 1.04 | 5.85e-05 | 5.62e+07 | 3.29 | 1.3 | – | 1.47 | 5.13e-05 | 3.48e+07 | 3.76 | – | –
8 | B8 | – | – | 1.03 | 5.92e-05 | 5.76e+07 | 3.25 | – | – | 1.73 | 4.96e-05 | 2.86e+07 | 3.88 | – | – | 1.6 | 7.52e-05 | 4.71e+07 | 2.56 | – | 1.5
